Test results as given in patent publication US10358663B2, “Method of production of 2,4-dihydroxybutyric acid” (ADISSEO FRANCE S.A.S., priority 2010, dated 2019).
Where a chain is given by its changes, count along the chain named. In names and notes the source's numbering stands.

Key:
Type in all cases: biochemical
[1] = Malate semialdehyde dehydrogenase activity, reverse biosynthetic direction, NADP reduction
Procedure: (§1) Enzymatic assay: Aspartate or malate semialdehyde dehydrogenase activities were assayed in the reverse biosynthetic direction by following the reduction of NADP during the oxidation of aspartate or malate semialdehyde to 4-phospho-(L)-aspartate or 4-phospho-(L)-malate, respectively (Roberts et al., 2003). (L)-aspartate semialdehyde (or (L)-malate semialdehyde)+NADP+Pi→4-phospho-(L)-aspartate (or 4-phospho-(L)-malate)+NADPH
(§2) The assay mixture contained 200 mM Hepes (pH 9), 50 mM K2HPO4, 0.25 mM NADP. Reactions were started by adding (L)-aspartate semialdehyde or (L)-malate semialdehyde. (L)-Aspartate semialdehyde was added in the form of L-aspartic acid β-semialdehyde hydrate trifluoroacetate (maintained at pH3 to prevent degradation) which is a suitable substrate for enzymatic tests of homoserine dehydrogenase and aspartate semialdehyde dehysrogenase (Roberts et al., 2003). Unstable malate semialdehyde was produced freshly prior to the enzymatic tests by the deprotection of the stable malate semialdehyde derivative 2-[(4S)-2,2-dimethyl-5-oxo-1,3-dioxolan-4-yl]acetaldehyde (DMODA). […]
(§3) Enzymatic assays were carried out in 96-well flat bottomed microtiter plates in a final volume of 250 μL at 30° C. The reactions were followed by the characteristic absorption of NADPH at 340 nm in a microplate reader (BioRad 680XR).

[2] = Aspartate semialdehyde dehydrogenase activity, reverse biosynthetic direction, NADP reduction; conditions: His-tagged enzyme, pH 9, 30° C.
Procedure: as §1, §2, §3

[3] = Aspartate kinase activity, ADP production coupled to NADH oxidation; conditions: purified enzyme, 30° C., pH 7.5
Procedure: Enzymatic assay: Aspartate or malate kinase activities were assayed by coupling ADP production in the kinase reactions to NADH oxidation in the presence of phosphoenolpyruvate, pyruvate kinase, and lactate dehydrogenase.
Aspartate (or Malate) Kinase aspartate (or malate)+ATP→4-phospho-(L)-aspartate (or 4-phospho-(L)-malate)+ADP
Pyruvate Kinase ADP+phosphoenolpyruvate→ATP+pyruvate
Lactate Dehydrogenase pyruvate+NADH→NAD^++lactate
The assay mixture contained 50 mM Hepes (pH 7.5), 50 mM KCl, 5 mM MgCl2, 0.24 mM NADH, 0.96 mM ATP, 0.96 mM PEP, 9 μg/mL of lactate dehydrogenase (Sigma, L2500), 12.4 μg/mL pyruvate kinase (Sigma, P1506), and appropriate amounts of purified aspartate (malate) kinase. Reactions were started by adding 50 mM (L)-aspartate or (L)-malate. Enzymatic assays were carried out at 30° C. in 96-well flat bottomed microtiter plates in a final volume of 250 μL. The reactions were followed by the characteristic absorption of NADH at 340 nm in a microplate reader (BioRad 680XR).
Maximum activities for LysC and Hom3 on aspartate were 4.5 μmol/(min*mgprot) and 1.6 μmol/(min*mgprot), respectively. The Km value for aspartate was estimated with the method of Eadie and Hofstee by measuring initial reaction rates (v) at different substrate concentrations (c) and by extracting the slope of the v versus v/c plot. […]

[4] = Hydroxamate assay to verify phosphorylation of the substrate; conditions: 10 mM malate, 10 mM ATP, 30 min
Procedure: Hydroxamate assay: To verify phosphorylation of the substrate, i.e. formation of an acylphosphate anhydride, by wild-type or mutated aspartate kinases, the product of the kinase reaction was incubated with hydroxylamine to form the corresponding aspartate or malate hydroxamate derivative. The assay mixture contained 120 mM Hepes (pH 8), 200 mM KCl, 10 mM ATP, 200 mM hydroxylamine, 10 mM aspartate or malate, and appropriate amount of purified protein. The reaction was stopped after 30 min by addition of an equal volume of 1.7% (w/v) FeCl3 in 1 M hydrochloric acid. Formation of the hydroxamate-iron complex was verified by measuring its characteristic absorbance at 540 nm in a microtiter plate reader. Assay mixtures containing all components except for ATP were used as a blank.

[5] = Test for malate semialdehyde reductase activity; conditions: for Activity on malate semialdehyde (cofactor NADPH): 0.24 mM NADPH
Procedure: Test for Malate Semialdehyde Reductase Activity: Reaction: (L)-Malate semialdehyde+NAD(P)H→(L)-2,4-dihydroxybutyric acid+NAD(P)
The assay mixture contained 200 mM Hepes (pH 7.5), 50 mM KCl, 5 mM MgCl2, 0.24 mM NADH or NADPH, and appropriate amounts of purified enzyme. Reactions were started by adding 10 mM (L)-malate semialdehyde (malate semialdehyde was prepared freshly for each test, see Example 4). Enzymatic assays were carried out at 30° C. in 96-well flat bottomed microtiter plates in a final volume of 250 μL. The reactions were followed by the characteristic absorption of NAD(P)H at 340 nm in a microplate reader (BioRad 680XR).

[6] = 10 mM (L)-malate semialdehyde, 30° C.

B1: Asd: wild-type aspartate semialdehyde dehydrogenase of E. coli, His-tagged (protein, listed as Escherichia coli)
chain: MKNVGFIGWRGMVGSVLMQRMVEERDFDAIRPVFFSTSQLGQAAPSFGGTTGTLQDAFDLEALKALDIIVTCQGGDYTNEIYPKLRESGWQGYWIDAASSLRMKDDAIIILDPVNQDVITDGLNNGIRTFVGGNCTVSLMLMSLGGLFANDLVDWVSVATYQAASGGGARHMRELLTQMGHLYGHVADELATPSSAILDIERKVTTLTRSGELPVDNFGVPLAGSLIPWIDKQLDNGQSREEWKGQAETNKILNTSSVIPVDGLCVRVGALRCHSQAFTIKLKKDVSIPTVEELLAAHNPWAKVVPNDREITMRELTPAAVTGTLTTPVGRLRKLNMGPEFLSAFTVGDQLLWGAAEPLRRMLRQLA
modifications: His tag
notes: wild-type aspartate semialdehyde dehydrogenase of E. coli, His-tagged
Activity on (L)-malate semialdehyde ([1]; His-tagged enzyme, pH 9, 30° C.): 0.01 μmol/(min*mgprot) | Maximum specific activity, oxidation of (L)-aspartate semialdehyde to 4-phospho-(L)-aspartate [2]: 160 μmol/(min*mgprot)

B2: Asd E241Q T136N: double mutant of E. coli aspartate semialdehyde dehydrogenase Asd (protein, listed as Escherichia coli)
chain: B1 chain with T136N, E241Q
Maximum specific activity ([1]; substrate not given, Example 5 tests malate semialdehyde dehydrogenase activity): 0.25 μmol/(min*mgprot)

B3: LysC: wild-type aspartate kinase III of E. coli encoded by the lysC gene (protein, listed as Escherichia coli)
chain: MSEIVVSKFGGTSVADFDAMNRSADIVLSDANVRLVVLSASAGITNLLVALAEGLEPGERFEKLDAIRNIQFAILERLRYPNVIREEIERLLENITVLAEAAALATSPALTDELVSHGELMSTLLFVEILRERDVQAQWFDVRKVMRTNDRFGRAEPDIAALAELAALQLLPRLNEGLVITQGFIGSENKGRTTTLGRGGSDYTAALLAEALHASRVDIWTDVPGIYTTDPRVVSAAKRIDEIAFAEAAEMATFGAKVLHPATLLPAVRSDIPVFVGSSKDPRAGGTLVCNKTENPPLFRALALRRNQTLLTLHSLNMLHSRGFLAEVFGILARHNISVDLITTSEVSVALTLDTTGSTSTGDTLLTQSLLMELSALCRVEVEEGLALVALIGNDLSKACGVGKEVFGVLEPFNIRMICYGASSHNLCFLVPGEDAEQVVQKLHSNLFE
Maximum activity on aspartate [3]: 4.5 μmol/(min*mgprot) | Phosphorylation of malate as verified by the hydroxamate assay [4]: not able to phosphorylate malate

B4: H39R N43H (SEQ ID NO: 81): M. sedula succinic semialdehyde reductase double mutant H39R N43H (protein, listed as Metallosphaera sedula)
chain: MKAAVLHTYKEPLSIEDVNISQPKAGEVKIKVKATGLCRSDVHVFEGKTPVPPPVVAGHEISGIVEEVGPGVTRVKPGDRVISAFIHPCGKCGNCVAGKENLCETFSQVRLKGVMPDGTSRLSKDGKEIRTFLGGGFAEYAIVGENALTRVPEDMDLEKVAVLGCAGLTGYGAISSSKIEPGDTVAVIGVGGVGLSTIQLLRASGAGRIIAVGTKKWKLDRAMELGATDVVNSKEIDPVKAIKEITGGGPQVVIEAGGNEDTIHMALDSVRIGGKVVLVGLPPATAMIPIRVASIVRGGIEVVGNYGGRPRVDMPKLLELVRQGRYDPSRLVTGRFRLEEINEAVKMLEEGEAIRSLIIP
Affinity for malate semialdehyde compared to the wild type enzyme [5]: improved affinity

B5: Ms-SSR: succinic semialdehyde reductase from Metallosphaera sedula, wild type (protein, listed as Metallosphaera sedula)
chain: B4 chain with R39H, H43N
Activity on malate semialdehyde (cofactor NADH) ([5]; 10 mM (L)-malate semialdehyde, 0.24 mM NADH, 30° C.): 4.9 μmol/(min*mg_prot) | Activity on malate semialdehyde (cofactor NADPH) [5, 6]: 4.9 μmol/(min*mg_prot)

B6: Hom3: wild-type aspartate kinase of Saccharomyces cerevisiae encoded by HOM3 (protein, listed as Saccharomyces cerevisiae)
chain: MPMDFQPTSSHSNWVVQKFGGTSVGKFPVQIVDDIVKHYSKPDGPNNNVAVVCSARSSYTKAEGTTSRLLKCCDLASQESEFQDIIEVIRQDHIDNADRFILNPALQAKLVDDTNKELELVKKYLNASKVLGEVSSRTVDLVMSCGEKLSCLFMTALCNDRGCKAKYVDLSHIVPSDFSASALDNSFYTFLVQALKEKLAPFVSAKERIVPVFTGFFGLVPTGLLNGVGRGYTDLCAALIAVAVNADELQVWKEVDGIFTADPRKVPEARLLDSVTPEEASELTYYGSEVIHPFTMEQVIRAKIPIRIKNVQNPLGNGTIIYPDNVAKKGESTPPHPPENLSSSFYEKRKRGATAITTKNDIFVINIHSNKKTLSHGFLAQIFTILDKYKLVVDLISTSEVHVSMALPIPDADSLKSLRQAEEKLRILGSVDITKKLSIVSLVGKHMKQYIGIAGTMFTTLAEEGINIEMISQGANEINISCVINESDSIKALQCIHAKLLSERTNTSNQFEHAIDERLEQLKRLGI
Maximum activity on aspartate [3]: 1.6 μmol/(min*mgprot) | Phosphorylation of malate as verified by the hydroxamate assay [4]: not able to phosphorylate malate

B7: YPR1: methylbutyraldehyde reductase from Saccharomyces cerevisiae (protein, listed as Saccharomyces cerevisiae)
chain: MPATLKNSSATLKLNTGASIPVLGFGTWRSVDNNGYHSVIAALKAGYRHIDAAAIYLNEEEVGRAIKDSGVPREEIFITTKLWGTEQRDPEAALNKSLKRLGLDYVDLYLMHWPVPLKTDRVTDGNVLCIPTLEDGTVDIDTKEWNFIKTWELMQELPKTGKTKAVGVSNFSINNIKELLESPNNKVVPATNQIEIHPLLPQDELIAFCKEKGIVVEAYSPFGSANAPLLKEQAIIDMAKKHGVEPAQLIISWSIQRGYVVLAKSVNPERIVSNFKIFTLPEDDFKTISNLSKVHGTKRVVDMKWGSFPIFQ
Activity on malate semialdehyde (cofactor NADPH) [5, 6]: 0.19 μmol/(min*mg_prot)
